According to paper PMC7052140:

How the values were obtained:
[1] = target: Cyt1Aa Q168E activated toxin (Bacillus thuringiensis subsp. israelensis)
[2] = target: Cyt1Aa activated toxin, wild type (Bacillus thuringiensis subsp. israelensis) (UniProt P0A382); assay: atomic force microscopy on supported lipid bilayers
[3] = target: Cyt1Aa E45Q activated toxin (Bacillus thuringiensis subsp. israelensis)
[4] = target: Cyt1Aa E32Q activated toxin (Bacillus thuringiensis subsp. israelensis)

Cyt1Aa Q168E activated toxin (domain or fragment)
cytotoxicity on HEK293 cells (LC50) [1]: > 30 µM

Cyt1Aa activated toxin, wild type (from UniProt P0A382 1-249) (domain or fragment)
stoichiometry N [2]: 56

Cyt1Aa E45Q activated toxin (domain or fragment)
fold reduction of cytotoxicity on HEK293 cells against the WT toxin [3]: 14 fold

Cyt1Aa E32Q activated toxin (domain or fragment)
fold reduction of cytotoxicity on HEK293 cells against the WT toxin [4]: 2.4 fold
